PMC10633859

Tests used:
SIRT6(1-300) = SIRT6(1-300) (human, UniProt Q8N6T7 1-300); assay: EMSA
[1] = biological target: SIRT6 full length (SIRT6FL) (human, UniProt Q8N6T7 1-355); assay: EMSA
Sequence of SIRT6 full length (SIRT6FL) (Q8N6T7 whole entry): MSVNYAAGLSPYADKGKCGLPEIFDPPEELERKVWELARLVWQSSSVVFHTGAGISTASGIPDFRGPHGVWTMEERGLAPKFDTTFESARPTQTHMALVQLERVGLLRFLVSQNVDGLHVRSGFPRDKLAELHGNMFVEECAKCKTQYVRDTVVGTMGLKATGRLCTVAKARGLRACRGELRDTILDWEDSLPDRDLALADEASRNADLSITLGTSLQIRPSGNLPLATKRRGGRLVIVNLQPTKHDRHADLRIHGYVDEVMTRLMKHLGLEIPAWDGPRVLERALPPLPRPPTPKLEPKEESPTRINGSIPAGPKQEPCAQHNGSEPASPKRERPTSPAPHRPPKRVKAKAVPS

Sequence of SIRT6(1-300) (Q8N6T7 1-300): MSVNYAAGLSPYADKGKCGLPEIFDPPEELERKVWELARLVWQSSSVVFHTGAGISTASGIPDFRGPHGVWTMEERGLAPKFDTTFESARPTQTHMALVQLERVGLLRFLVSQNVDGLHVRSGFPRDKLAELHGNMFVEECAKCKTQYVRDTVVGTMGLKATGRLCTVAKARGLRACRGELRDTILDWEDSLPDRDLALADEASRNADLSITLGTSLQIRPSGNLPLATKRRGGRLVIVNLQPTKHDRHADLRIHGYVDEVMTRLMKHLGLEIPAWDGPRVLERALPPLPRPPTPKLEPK

B1: fluorescent dsDNA 47 bp (dsDNA)
DNA 1: CAGATCTACCGAATCAGTCCGACGACGCATCTGCACTACGAGGATAC
DNA 2: GTATCCTCGTAGTGCAGATGCGTCGTCGGACTGATTCGGTAGATCTG
With B1 the Kd (SIRT6(1-300)) was 9.68 ± 0.39 µM and the Kd [1] was 1.93 ± 0.1 µM.
